Measurements: paper PMC2752052

Substrate: NC(=O)c1ccc[n+]([C@@H]2O[C@H](COP(=O)([O-])OP(=O)(O)OC[C@H]3O[C@@H](n4cnc5c(N)ncnc54)[C@H](O)[C@@H]3O)[C@@H](O)[C@H]2O)c1
Experiment: purified protein
Type: biochemical, Homo sapiens

B1: Sirt1 (Homo sapiens) (protein)
chain: ADEAALALQPGGSPSAAGADREAASSPAGEPLRKRPRRDGPGLERSPGEPGGAAPEREVPAAARGCPGAAAAALWREAEAEAAAAGGEQEAQATAAAGEGDNGPGLQGPSREPPLADNLYDEDDDDEGEEEEEAAAAAIGYRDNLLFGDEIITNGFHSCESDEEDRASHASSSDWTPRPRIGPYTFVQQHLMIGTDPRTILKDLLPETIPPPELDDMTLWQIVINILSEPPKRKKRKDINTIEDAVKLLQECKKIIVLTGAGVSVSCGIPDFRSRDGIYARLAVDFPDLPDPQAMFDIEYFRKDPRPFFKFAKEIYPGQFQPSLCHKFIALSDKEGKLLRNYTQNIDTLEQVAGIQRIIQCHGSFATASCLICKYKVDCEAVRGDIFNQVVPRCPRCPADEPLAIMKPEIVFFGENLPEQFHRAMKYDKDEVDLLIVIGSSLKVRPVALIPSSIPHEVPQILINREPLPHLHFDVELLGDCDVIINELCHRLGGEYAKLCCNPVKLSEITEKPPRTQKELAYLSELPPTPLHVSEDSSSPERTSPPDSSVIVTLLDQAAKSNDDLDVSESKGCMEEKPQEVQTSRNVESIAEQMENPDLKNVGSSTGEKNERTSVAGTVRKCWPNRVAKEQISRRLDGNQYLFLPPNRYIFHGAEVYSDSEDDVLSSSSCGSNSDSGTCQSPSLEEPMEDESEIEEFYNGLEDEPDVPERAGGAGFGTDGDDQEAINEAISVKQEVTDMNYPSNKS
- Km: 171 ± 23 µM
